According to article PMC9427789 (2022):

B1: Burosumab (wild type) (antibody, V domains shown)
VH: QVQLVQSGAEVKKPGASVKVSCKASGYTFTNHYMHWVRQAPGQGLEWMGIINPISGSTSNAQKFQGRVTMTRDTSTSTVYMELSSLRSEDTAVYYCARDIVDAFDFWGQGTMVTVSS
VL: AIQLTQSPSSLSASVGDRVTITCRASQGISSALVWYQQKPGKAPKLLIYDASSLESGVPSRFSGSGSGTDFTLTISSLQPEDFATYYCQQFNDYFTFGPGTKVDIK
B2: Burosumab VL:A32S (antibody, V domains shown)
VH: QVQLVQSGAEVKKPGASVKVSCKASGYTFTNHYMHWVRQAPGQGLEWMGIINPISGSTSNAQKFQGRVTMTRDTSTSTVYMELSSLRSEDTAVYYCARDIVDAFDFWGQGTMVTVSS
VL: AIQLTQSPSSLSASVGDRVTITCRASQGISSSLVWYQQKPGKAPKLLIYDASSLESGVPSRFSGSGSGTDFTLTISSLQPEDFATYYCQQFNDYFTFGPGTKVDIK
B3: Burosumab VH:V97A (antibody, V domains shown)
VH: QVQLVQSGAEVKKPGASVKVSCKASGYTFTNHYMHWVRQAPGQGLEWMGIINPISGSTSNAQKFQGRVTMTRDTSTSTVYMELSSLRSEDTAVYYCARDIADAFDFWGQGTMVTVSS
VL: AIQLTQSPSSLSASVGDRVTITCRASQGISSALVWYQQKPGKAPKLLIYDASSLESGVPSRFSGSGSGTDFTLTISSLQPEDFATYYCQQFNDYFTFGPGTKVDIK
B4: Burosumab variant with combined VH:V97A and VL:A32S mutations (antibody, V domains shown)
VH: QVQLVQSGAEVKKPGASVKVSCKASGYTFTNHYMHWVRQAPGQGLEWMGIINPISGSTSNAQKFQGRVTMTRDTSTSTVYMELSSLRSEDTAVYYCARDIADAFDFWGQGTMVTVSS
VL: AIQLTQSPSSLSASVGDRVTITCRASQGISSSLVWYQQKPGKAPKLLIYDASSLESGVPSRFSGSGSGTDFTLTISSLQPEDFATYYCQQFNDYFTFGPGTKVDIK

Molecular target: T1, His-SUMO-FGF23 (N-terminal domain of human FGF23, wild type) (human, UniProt Q9GZV9 25-204)
T1 chain: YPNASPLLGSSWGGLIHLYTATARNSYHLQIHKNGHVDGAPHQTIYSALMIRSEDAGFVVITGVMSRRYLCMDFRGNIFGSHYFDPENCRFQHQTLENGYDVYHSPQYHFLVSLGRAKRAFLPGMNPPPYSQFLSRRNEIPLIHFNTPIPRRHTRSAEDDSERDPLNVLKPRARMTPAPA
Experiment: ELISA

First: B1
Second: B2
The Kd of the first is 1.6-fold higher: 770 pM for the first, 480 pM for the second. The second binds more tightly here.

Compared with B3, B4 is 3.1-fold lower in Kd: 650 pM for the first, 210 pM for the second. The second binds more tightly here.
